Test results published in patent publication EP1740204B1.
“And” between values parts separate entries of the source, which are not always exact repeats. Equal values may be shown once.

Key:
[1] = biological target: MPR 300 affinity matrix (Man6P-receptor affinity matrix); assay: overnight incubation with MPR 300 affinity matrix; activity in unbound, glucose 6-phosphate and mannose 6-phosphate eluted fractions
[2] = biological target: MPR 300 affinity matrix (Man6P-receptor affinity matrix); assay: MPR 300 affinity matrix binding of enzyme batches
[3] = biological target: MPR 300 affinity matrix (Man6P-receptor affinity matrix); assay: MPR 300 affinity column

bovine LAMAN purified from kidney (from UniProt Q29451 51-999) (enzyme)
percent of LAMAN activity bound to the Man6P-receptor affinity matrix in a Man6P-dependent manner [1]: 6.4%

recombinant mouse LAMAN with C-terminal polyhistidine tail, secreted from mannose 6-phosphate receptor deficient mouse embryonic fibroblasts (from UniProt O09159 50-1013) (enzyme)
percent of LAMAN activity bound to the Man6P-receptor affinity matrix [1]: 73.6%

recombinant human lysosomal alpha-mannosidase (LAMAN) expressed in CHO cells (enzyme)
% phosphorylation (fraction of enzyme binding the Man6P-receptor affinity matrix) [2]: 40% and 30% and 42%
percent of the amount of enzyme binding to the affinity matrix [2]: 40%
percent bound to the MRP 300 column [3]: < 40%
percent of LAMAN bound to the Man6P-receptor affinity matrix in a Man6P-dependent manner [1]: 4.2%
